This is an account of results in PMC4778861, “Type One Protein Phosphatase 1 and Its Regulatory Protein Inhibitor 2 Negatively Regulate ABA Signaling” (PLoS Genetics, 2016).

For the experiment, the target named is T1, MBP-SnRK2.6 (Arabidopsis thaliana, UniProt Q940H6 1-362).
T1 construct: SNF1-related protein kinase 2.6 (SnRK2.6, OST1), Arabidopsis thaliana, in pMal-c2X; source: E. coli BL21 (DE3), purified (amylose resin); not shown: MBP, N-terminal, kept
T1 sequence (looked up): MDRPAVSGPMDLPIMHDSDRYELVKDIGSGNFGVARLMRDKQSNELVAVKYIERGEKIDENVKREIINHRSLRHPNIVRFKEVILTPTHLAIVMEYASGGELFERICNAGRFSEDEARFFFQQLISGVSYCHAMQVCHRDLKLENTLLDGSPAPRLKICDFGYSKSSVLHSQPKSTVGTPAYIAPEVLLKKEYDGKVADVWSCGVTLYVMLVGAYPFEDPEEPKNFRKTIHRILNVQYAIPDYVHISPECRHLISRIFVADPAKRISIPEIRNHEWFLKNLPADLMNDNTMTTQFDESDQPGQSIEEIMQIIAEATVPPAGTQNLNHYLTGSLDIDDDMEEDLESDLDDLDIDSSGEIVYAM
In words: pull-down; GST-TOPP1 or GST-AtI-2 incubated with MBP-SnRK2.6 in amylose resin, 4 hours at 4°C, washed 4 times with 1X PBS; SDS-PAGE, coomassie blue. Conditions: both partners purified.

B1: GST-AtI-2 (natural protein, Arabidopsis thaliana, UniProt Q9LTK0 1-191, looked up)
chain: MTEPKRGRVQWDEANIVEIESNKPVRQKITEPKTPYHPMMDDDGSLSPRGRAFDECVDDMQRAEELRNVLNDAAASSSRNSSQGSGGGGWSSSDEEEEEADPMDQDEEGSGSGKNERFNAHRKAHYDEFRKVKELRSSGSFYEEEEEEDDGAKGSKSETTTNSRHTKGGNKELDATKTVSGTSSSSSPELI
notes: source: E. coli, purified (glutathione-agarose beads); not shown: GST, N-terminal, kept
As to B1, the binding result is reported as “binds”.

B2: GST-TOPP1 (enzyme, Arabidopsis thaliana, UniProt P30366 1-318, looked up)
chain: MAEKPAQEQEQKRAMEPAVLDDIIRRLVEFRNTRPGSGKQVHLSEGEIRQLCAVSKEIFLQQPNLLELEAPIKICGDIHGQYSDLLRLFEYGGFPPEANYLFLGDYVDRGKQSLETICLLLAYKIKYPENFFLLRGNHESASINRIYGFYDECKRRFNVRLWKIFTDCFNCLPVAALIDDRILCMHGGISPELKSLDQIRNIARPMDIPESGLVCDLLWSDPSGDVGWGMNDRGVSYTFGADKVAEFLEKHDMDLICRAHQVVEDGYEFFAERQLVTVFSAPNYCGEFDNAGAMMSIDESLMCSFQILKPSEKKSPFL
notes: also called GST-tagged TOPP1; source: E. coli, purified (glutathione-agarose beads); not shown: GST, N-terminal, kept
In the case of B2, the binding result was “binds”.
